In US20260297205 (published 2026):

Target: human growth hormone (GH) (human, UniProt P01241)
Experiment: SPR, 20C

Chain of human growth hormone (GH) (P01241 27-217): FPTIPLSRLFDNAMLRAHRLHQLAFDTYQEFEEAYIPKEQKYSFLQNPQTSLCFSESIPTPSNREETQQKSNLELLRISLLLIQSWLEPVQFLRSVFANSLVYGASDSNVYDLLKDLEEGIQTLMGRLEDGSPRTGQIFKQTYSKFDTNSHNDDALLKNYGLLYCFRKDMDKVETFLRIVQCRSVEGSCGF

| Binder | Kd |
| --- | --- |
| GH7 (antibody, V domains shown) VH: EVQLVESGGGLVQPGGSLRLSCAASGFNVYSSSIHWVRQAPGKGLEWVASIYSYSGYTSYADSVKGRFTISADTSKNTAYLQMNSLRAEDTAVYYCARGRYSWFALDYWGQGTLVTV VL: DIQMTQSPSSLSASVGDRVTITCRASQSVSSAVAWYQQKPGKAPKLLIYSASSLYSGVPSRFSGSRSGTDFTLTISSLQPEDFATYYCQQYWSFPITFGQGTKVEIKR | 6.1 nM |
| GH3 (antibody, V domains shown) VH: EVQLVESGGGLVQPGGSLRLSCAASGFNVSSSSIHWVRQAPGKGLEWVAYISSYYGYTSYADSVKGRFTISADTSKNTAYLQMNSLRAEDTAVYYCAREGWYWWAMDYWGQGTLVTV VL: DIQMTQSPSSLSASVGDRVTITCRASQSVSSAVAWYQQKPGKAPKLLIYSASSLYSGVPSRFSGSRSGTDFTLTISSLQPEDFATYYCQQAWYLPITFGQGTKVEIKR | 21 nM |
| GH4 (antibody, V domains shown) VH: EVQLVESGGGLVQPGGSLRLSCAASGFNVSSSYIHWVRQAPGKGLEWVASIYSSYGYTSYADSVKGRFTISADTSKNTAYLQMNSLRAEDTAVYYCARESWGSGYYTWAMDYWGQGTLVTV VL: DIQMTQSPSSLSASVGDRVTITCRASQSVSSAVAWYQQKPGKAPKLLIYSASSLYSGVPSRFSGSRSGTDFTLTISSLQPEDFATYYCQQSWRYPFTFGQGTKVEIKR | 5.4 nM |
| GH2 (antibody, V domains shown) VH: EVQLVESGGGLVQPGGSLRLSCAASGFNVSSSYIHWVRQAPGKGLEWVASIYSYYGYTSYADSVKGRFTISADTSKNTAYLQMNSLRAEDTAVYYCARENYGNWRSMYSGMDYWGQGTLVTV VL: DIQMTQSPSSLSASVGDRVTITCRASQSVSSAVAWYQQKPGKAPKLLIYSASSLYSGVPSRFSGSRSGTDFTLTISSLQPEDFATYYCQQSYFLPFTFGQGTKVEIKR | 0.9 nM |
| GH11 (antibody, V domains shown) VH: EVQLVESGGGLVQPGGSLRLSCAASGFNIYSSSIHWVRQAPGKGLEWVASISSSSGSTSYADSVKGRFTISADTSKNTAYLQMNSLRAEDTAVYYCARKYSGYYSNWYYPALDYWGQGTLVTV VL: DIQMTQSPSSLSASVGDRVTITCRASQSVSSAVAWYQQKPGKAPKLLIYSASSLYSGVPSRFSGSRSGTDFTLTISSLQPEDFATYYCQQSSSSLITFGQGTKVEIKR | 0.3 nM |
| GH6 (antibody, V domains shown) VH: EVQLVESGGGLVQPGGSLRLSCAASGFNVSYSSIHWVRQAPGKGLEWVASIYSSYGYTSYADSVKGRFTISADTSKNTAYLQMNSLRAEDTAVYYCARGHGSMWAMDYWGQGTLVTV VL: DIQMTQSPSSLSASVGDRVTITCRASQSVSSAVAWYQQKPGKAPKLLIYSASSLYSGVPSRFSGSRSGTDFTLTISSLQPEDFATYYCQQSWSLPFTFGQGTKVEIKR | 0.04 nM |
| GH12 (antibody, V domains shown) VH: EVQLVESGGGLVQPGGSLRLSCAASGFNLSSSYIHWVRQAPGKGLEWVASIYPYSGYTSYADSVKGRFTISADTSKNTAYLQMNSLRAEDTAVYYCARMYWTGALDYWGQGTLVTV VL: DIQMTQSPSSLSASVGDRVTITCRASQSVSSAVAWYQQKPGKAPKLLIYSASSLYSGVPSRFSGSRSGTDFTLTISSLQPEDFATYYCQQSSYSPITFGQGTKVEIKR | 0.08 nM |
| GH5 (antibody, V domains shown) VH: EVQLVESGGGLVQPGGSLRLSCAASGFNVSSYYIHWVRQAPGKGLEWVASIYSYYGYTSYADSVKGRFTISADTSKNTAYLQMNSLRAEDTAVYYCARGDNYSWAMDYWGQGTLVTV VL: DIQMTQSPSSLSASVGDRVTITCRASQSVSSAVAWYQQKPGKAPKLLIYSASSLYSGVPSRFSGSRSGTDFTLTISSLQPEDFATYYCQQSWQYPFTFGQGTKVEIKR | 4.9 nM |
| GH1 (antibody, V domains shown) VH: EVQLVESGGGLVQPGGSLRLSCAASGFNFYYSSIHWVRQAPGKGLEWVAYIYSYSGYTSYADSVKGRFTISADTSKNTAYLQMNSLRAEDTAVYYCARYSWWGGMDYWGQGTLVTV VL: DIQMTQSPSSLSASVGDRVTITCRASQSVSSAVAWYQQKPGKAPKLLIYSASSLYSGVPSRFSGSRSGTDFTLTISSLQPEDFATYYCQQSYSVPITFGQGTKVEIKR | 1.5 nM |

Second part, the binder after the results:

| Kd | Binder |
| --- | --- |
| 14 nM | GH35 (antibody, V domains shown) VH: EVQLVESGGGLVQPGGSLRLSCAASGFNVYYSSIHWVRQAPGKGLEWVASIYSYSGYTSYADSVKGRFTISADTSKNTAYLQMNSLRAEDTAVYYCARWSYKAMDYWGQGTLVTV VL: DIQMTQSPSSLSASVGDRVTITCRASQSVSSAVAWYQQKPGKAPKLLIYSASSLYSGVPSRFSGSRSGTDFTLTISSLQPEDFATYYCQQDYYAPITFGQGTKVEIKR |
| 8.1 nM | GH38 (antibody, V domains shown) VH: EVQLVESGGGLVQPGGSLRLSCAASGFNVYSSSIHWVRQAPGKGLEWVASIYPSYGYTSYADSVKGRFTISADTSKNTAYLQMNSLRAEDTAVYYCARWHWGWGSYGWGMDYWGQGTLVTV VL: DIQMTQSPSSLSASVGDRVTITCRASQSVSSAVAWYQQKPGKAPKLLIYSASSLYSGVPSRFSGSRSGTDFTLTISSLQPEDFATYYCQQQWYVPITFGQGTKVEIKR |
| 1.9 nM | GH20 (antibody, V domains shown) VH: EVQLVESGGGLVQPGGSLRLSCAASGFNVSSSYIHWVRQAPGKGLEWVASIYSYSGYTSYADSVKGRFTISADTSKNTAYLQMNSLRAEDTAVYYCARYKWYAMDYWGQGTLVTV VL: DIQMTQSPSSLSASVGDRVTITCRASQSVSSAVAWYQQKPGKAPKLLIYSASSLYSGVPSRFSGSRSGTDFTLTISSLQPEDFATYYCQQSSWYPITFGQGTKVEIKR |
| 17 nM | GH32 (antibody, V domains shown) VH: EVQLVESGGGLVQPGGSLRLSCAASGFNFYSSYIHWVRQAPGKGLEWVASIYSYSGYTSYADSVKGRFTISADTSKNTAYLQMNSLRAEDTAVYYCARYKYMGMDYWGQGTLVTV VL: DIQMTQSPSSLSASVGDRVTITCRASQSVSSAVAWYQQKPGKAPKLLIYSASSLYSGVPSRFSGSRSGTDFTLTISSLQPEDFATYYCQQSSWMPITFGQGTKVEIKR |
| 3.4 nM | GH16 (antibody, V domains shown) VH: EVQLVESGGGLVQPGGSLRLSCAASGFNLSSYYIHWVRQAPGKGLEWVASIYPSYGYTSYADSVKGRFTISADTSKNTAYLQMNSLRAEDTAVYYCARWGKWYGYPFSGLDYWGQGTLVTV VL: DIQMTQSPSSLSASVGDRVTITCRASQSVSSAVAWYQQKPGKAPKLLIYSASSLYSGVPSRFSGSRSGTDFTLTISSLQPEDFATYYCQQDWYFPITFGQGTKVEIKR |
| 1.3 nM | GH24 (antibody, V domains shown) VH: EVQLVESGGGLVQPGGSLRLSCAASGFNVSSSSIHWVRQAPGKGLEWVASIYSSYGYTSYADSVKGRFTISADTSKNTAYLQMNSLRAEDTAVYYCARGDRYVWAMDYWGQGTLVTV VL: DIQMTQSPSSLSASVGDRVTITCRASQSVSSAVAWYQQKPGKAPKLLIYSASSLYSGVPSRFSGSRSGTDFTLTISSLQPEDFATYYCQQSSSYPFTFGQGTKVEIKR |
| 20 nM | GH34 (antibody, V domains shown) VH: EVQLVESGGGLVQPGGSLRLSCAASGFNFSYSSIHWVRQAPGKGLEWVASIYPSYGYTSYADSVKGRFTISADTSKNTAYLQMNSLRAEDTAVYYCARYYYFGMDYWGQGTLVTV VL: DIQMTQSPSSLSASVGDRVTITCRASQSVSSAVAWYQQKPGKAPKLLIYSASSLYSGVPSRFSGSRSGTDFTLTISSLQPEDFATYYCQQSWSMPLTFGQGTKVEIKR |
| 0.3 nM | GH13 (antibody, V domains shown) VH: EVQLVESGGGLVQPGGSLRLSCAASGFNFSSSSIHWVRQAPGKGLEWVASISSYYSSTYYADSVKGRFTISADTSKNTAYLQMNSLRAEDTAVYYCARQYTSPWHWYKAMDYWGQGTLVTV VL: DIQMTQSPSSLSASVGDRVTITCRASQSVSSAVAWYQQKPGKAPKLLIYSASSLYSGVPSRFSGSRSGTDFTLTISSLQPEDFATYYCQQSSSSLITFGQGTKVEIKR |
| 3.9 nM | GH15 (antibody, V domains shown) VH: EVQLVESGGGLVQPGGSLRLSCAASGFNVSSSYIHWVRQAPGKGLEWVASIYSYSGYTSYADSVKGRFTISADTSKNTAYLQMNSLRAEDTAVYYCARTSYGRGALDYWGQGTLVTV VL: DIQMTQSPSSLSASVGDRVTITCRASQSVSSAVAWYQQKPGKAPKLLIYSASSLYSGVPSRFSGSRSGTDFTLTISSLQPEDFATYYCQQWSWYPITFGQGTKVEIKR |
| 0.7 nM | GH14 (antibody, V domains shown) VH: EVQLVESGGGLVQPGGSLRLSCAASGFNFYSSSIHWVRQAPGKGLEWVASIYSYYGYTSYADSVKGRFTISADTSKNTAYLQMNSLRAEDTAVYYCARSGGYIGFDYWGQGTLVTV VL: DIQMTQSPSSLSASVGDRVTITCRASQSVSSAVAWYQQKPGKAPKLLIYSASSLYSGVPSRFSGSRSGTDFTLTISSLQPEDFATYYCQQYWEYPFTFGQGTKVEIKR |
| 1.1 nM | GH22 (antibody, V domains shown) VH: EVQLVESGGGLVQPGGSLRLSCAASGFNFSSSYIHWVRQAPGKGLEWVASIYSYSGYTSYADSVKGRFTISADTSKNTAYLQMNSLRAEDTAVYYCARYRFIGAMDYWGQGTLVTV VL: DIQMTQSPSSLSASVGDRVTITCRASQSVSSAVAWYQQKPGKAPKLLIYSASSLYSGVPSRFSGSRSGTDFTLTISSLQPEDFATYYCQQSHWSPITFGQGTKVEIKR |
| 7.5 nM | GH21 (antibody, V domains shown) VH: EVQLVESGGGLVQPGGSLRLSCAASGFNVSSSYIHWVRQAPGKGLEWVASIYSYSGYTSYADSVKGRFTISADTSKNTAYLQMNSLRAEDTAVYYCARYMYYAMDYWGQGTLVTV VL: DIQMTQSPSSLSASVGDRVTITCRASQSVSSAVAWYQQKPGKAPKLLIYSASSLYSGVPSRFSGSRSGTDFTLTISSLQPEDFATYYCQQSSWSPITFGQGTKVEIKR |
| 5.8 nM | GH33 (antibody, V domains shown) VH: EVQLVESGGGLVQPGGSLRLSCAASGFNFYSSYIHWVRQAPGKGLEWVASIYSYSGYTSYADSVKGRFTISADTSKNTAYLQMNSLRAEDTAVYYCARYWYYYNGMDYWGQGTLVTV VL: DIQMTQSPSSLSASVGDRVTITCRASQSVSSAVAWYQQKPGKAPKLLIYSASSLYSGVPSRFSGSRSGTDFTLTISSLQPEDFATYYCQQIRYVPITFGQGTKVEIKR |
